In US20150166643A1 (Alexion, published 2015):
Changes are numbered by the printed parent chain. In names and notes the source's numbering stands. Each block holds one binder with its values, some of them ahead of it.

Legend:
[1] = target: T1, human factor B (purified, Complement Technology A135) (human, UniProt P00751 26-764); test: SPR (Biacore), CLS012 captured on anti-Fc surface, soluble factor B 3.1-200 nM flowed; Chi2 6.74, fitted lines depart visibly from the data (the text calls the fits poor)
T1 construct: also called fB; human complement factor B
T1 sequence (P00751 26-764): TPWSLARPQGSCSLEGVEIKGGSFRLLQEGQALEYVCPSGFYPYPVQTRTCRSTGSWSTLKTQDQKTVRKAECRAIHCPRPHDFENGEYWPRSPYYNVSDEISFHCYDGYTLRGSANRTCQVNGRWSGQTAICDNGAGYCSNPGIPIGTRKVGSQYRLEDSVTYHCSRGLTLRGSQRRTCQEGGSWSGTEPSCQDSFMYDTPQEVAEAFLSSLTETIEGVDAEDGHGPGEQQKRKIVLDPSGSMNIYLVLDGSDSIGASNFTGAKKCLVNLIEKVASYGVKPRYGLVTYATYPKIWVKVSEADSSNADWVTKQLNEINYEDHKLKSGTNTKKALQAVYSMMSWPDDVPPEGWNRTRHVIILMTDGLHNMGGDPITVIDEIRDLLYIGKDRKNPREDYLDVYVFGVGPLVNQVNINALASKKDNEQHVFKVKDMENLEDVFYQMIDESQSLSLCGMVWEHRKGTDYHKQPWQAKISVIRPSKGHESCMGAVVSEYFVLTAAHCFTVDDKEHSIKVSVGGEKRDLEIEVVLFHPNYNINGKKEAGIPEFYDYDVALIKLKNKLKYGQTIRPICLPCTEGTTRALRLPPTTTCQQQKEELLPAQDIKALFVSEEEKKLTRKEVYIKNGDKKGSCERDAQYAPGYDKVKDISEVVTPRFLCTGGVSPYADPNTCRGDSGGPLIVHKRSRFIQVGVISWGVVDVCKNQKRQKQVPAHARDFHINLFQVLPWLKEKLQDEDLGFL
Source text: (§1) Binding kinetics of mAbs were further characterized using Biacore's Surface Plasmon Resonance (SPR) technology (GE Healthcare, Piscataway, N.J.). For a detailed description of SPR and its applications in affinity measurement, please see Karlsson and Larsson, Antibody Engineering: Methods and Protocols, Methods in Molecular Biology (2003), 248: 389-415. In one exemplary experiment, TA106 Fab and derivative mAbs were captured on chips of a Biacore 3000 analyzer and samples of human factor B of different concentrations were flowed as the antigen over the surface to model soluble human factor B binding, using protocols recommended by the manufacturer (e.g., in the product brochure #BR-9003-31). All these referenced publications are hereby incorporated by reference in their entirety. […] Fab TA106 (Xoma, Lot#TTA1007, 20 mg/mL) was then flowed over one flow cell, followed by injections of human factor B on both flow cells. Concentrations (factor B) between 3.1-200 nM were run. The surface was regenerated between each cycle. […] The affinities of mAbs, i.e., CLS011, CLS012, and CLS013, were determined using a similar capture approach. In one exemplary experiment, human anti-Fc antibody was amine coupled to two flow cells of a CM5 chip. Each of the TA106-originated mAbs was then flowed over one flow cell, followed by injecting human factor B (3.1-200 nM) on both flow cells. […]

[2] = target: T1, human factor B (purified, Complement …); test: cell-based or functional assay
[3] = target: T1, human factor B (purified, Complement …); test: SPR (Biacore 3000), mAb captured by anti-Fc antibody on CM5 chip, soluble human factor B 3.1-200 nM; filing calls this value not reliable (poor fits); poor fits; patent calls the value not reliable
Source text: as §1

[4] = target: T1, human factor B (purified, Complement …); test: SPR (Biacore), factor B coupled to the chip, free CLS016 Fab 0.19-25 nM flowed; Chi2 0.121 (the text rounds to 3.4 nM)
Source text: (§2) Binding kinetics of TA106 Fab and variant S33A Fab (CLS016) were further characterized using Surface Plasmon Resonance (SPR) technology. In one exemplary experiment, both Fabs were captured on chips of a Biacore 3000 analyzer and samples of human factor B of different concentrations were flowed as the antigen over the surface to model soluble human factor B binding, using protocols recommended by the manufacturer and described previously in the instant disclosure. […] In another exemplary experiment, the affinities of both Fabs were also measured by reversing the orientation of the previous experiment. Specifically, human factor B was directly coupled to one flow cell of a CM5 chip. The second flow cell was used as a blank reference with no coupled ligand. CLS016 or TA106 Fab was then flowed on both flow cells. Concentrations between 0.19 to 25 nM were run with duplicates. The surface was regenerated between each cycle.

[5] = target: T1, human factor B (purified, Complement …); test: SPR (Biacore), human factor B directly coupled to CM5 chip, Fab flowed at 0.19-25 nM
Source text: as §2

[6] = target: T1, human factor B (purified, Complement …); test: SPR, factor B on surface, Fab flowed (summary table)
Source text: as §2

[7] = target: T1, human factor B (purified, Complement …); test: BLI (Octet), binding to factor B (summary table)
Procedure: (§3) Binding kinetics of TA106 and TA106 S33A Fab (CLS016) to Factor B were analyzed using a FortéBio® Octet® biosensor (FortéBio, Inc.) in a similar protocol as described previously. In one exemplary experiment, Factor B (Complement Technology) was biotinylated at a 1:10 ratio and coupled to a streptavidin biosensor at a concentration of 5 μg/mL for a loading time of 600 seconds. Biosensors were briefly dipped in 1×KB as a wash for 30 seconds. Associations with a titration series of Fab with a concentration range from 100 to 3 nM (diluted in 1×KB) were carried out for 600 seconds. Fabs were dissociated from the biosensor by immersing the biosensor in 1×KB during the 600 second dissociation phase. As depicted in FIGS. 19 and 20, both TA106 Fab and TA106-derivative S33A Fab (CLS016) bound to Factor B at various concentrations, resulting in nearly identical association and dissociation profiles. Kinetic assessments using partial local fit parameters yielded identical values for KD/kₐ/Kd at each concentration tested.

[8] = target: T1, human factor B (purified, Complement …); test: BLI (Octet), biotinylated factor B on streptavidin biosensor, Fab at 12.5 nM
Procedure: as §3

[9] = target: T1, human factor B (purified, Complement …); test: BLI (Octet), biotinylated factor B on streptavidin biosensor, Fab at 25 nM
Procedure: as §3

[10] = target: T1, human factor B (purified, Complement …); test: BLI (Octet), biotinylated factor B on streptavidin biosensor, Fab at 100 nM
Procedure: as §3

[11] = target: T1, human factor B (purified, Complement …); test: BLI (Octet), biotinylated factor B on streptavidin biosensor, Fab at 3.13 nM
Procedure: as §3

[12] = target: T1, human factor B (purified, Complement …); test: BLI (Octet), biotinylated factor B on streptavidin biosensor, Fab at 50 nM
Procedure: as §3

[13] = target: T1, human factor B (purified, Complement …); test: SPR (Biacore), CLS016 Fab captured on anti-Fab surface, soluble factor B flowed; Chi2 0.155
Source text: as §2

[14] = target: T1, human factor B (purified, Complement …); test: SPR (Biacore), factor B coupled to the chip, free CLS016 Fab 0.19-25 nM flowed; Chi2 0.121
Source text: as §2

[15] = target: T1, human factor B (purified, Complement …); test: SPR (Biacore 3000), Fab captured on chip, soluble human factor B 3.1-100 nM
Source text: as §2

[16] = target: T1, human factor B (purified, Complement …); test: BLI (Octet), biotinylated factor B on streptavidin biosensor, Fab at 6.25 nM
Procedure: as §3

koff [1]: 0.00422 s⁻¹
kon [1]: 366000 M⁻¹ s⁻¹
IC50 (read off the curve); lysis of rabbit red blood cells in 10% normal human serum [2]: ~20 nM
Kd [3]: ~11.5 nM
B1: CLS012 (TA106-derivative N31Q variant, full-length IgG2/4 mAb, expressed in CHO cells) (antibody, V domains shown)
VH: EVQLVQSGAEVKKPGASVKVSCKASGYSFTDYYMTWVRQAPGQGLEWMGWINPNSGGTKYAQKFQGRVTMTRDTSISTAYMELSRLRSDDTAVYYCARGYYANSAWFAYWGQGTLVTVSS
VL: DIVMTQSPDSLAVSLGERATINCKSSQSLLQSSTSKNYLAWYQQKPGQPPKLLIYWASTRESGVPDRFSGSGSGTDFTLTISSLQAEDVAVYYCKQVYNLPWTFGQGTKLEIKR
modifications: N-linked glycans on the heavy chain constant region
notes: Human IgG2/4 full-length mAb; also called CLS012 mAb; TA106 variant N31Q

Kd [4]: 3.37 nM
Kd [5]: ~3.4 nM
Kd [6]: 2.6 nM
Kd [7]: 20 to 30 nM
Kd [8]: 31.4 nM
koff [8]: 0.00353 s⁻¹
kon [8]: 112000 M⁻¹ s⁻¹
Kd [9]: 22.2 nM
koff [9]: 0.00392 s⁻¹
kon [9]: 177000 M⁻¹ s⁻¹
Kd [10]: 13 nM
koff [10]: 0.00438 s⁻¹
kon [10]: 338000 M⁻¹ s⁻¹
Kd [11]: 28 nM
koff [11]: 0.00244 s⁻¹
kon [11]: 87300 M⁻¹ s⁻¹
Kd [12]: 21.5 nM
koff [12]: 0.00412 s⁻¹
kon [12]: 192000 M⁻¹ s⁻¹
koff [13]: 0.00429 s⁻¹
kon [13]: 131000 M⁻¹ s⁻¹
koff [14]: 0.00466 s⁻¹
kon [14]: 1.38e+06 M⁻¹ s⁻¹
Kd [15]: ~32.8 nM
Kd [16]: 41.9 nM
koff [16]: 0.00322 s⁻¹
kon [16]: 76900 M⁻¹ s⁻¹
B2: CLS016 (TA106-derivative S33A variant, IgG1 Fab, expressed in CHO cells) (Fab, V domains shown)
VH: B1 VH with E1Q
VL: B1 VL with Q31N, S33A
notes: IgG1 Fab of the S33A variant, made in CHO cells; also called TA106 S33A Fab; TA106-derivative S33A Fab
